This passage reports koff results from publication PMC9545174 (2022).

This assay concerns the target wildtype SARS-CoV-2 RBD Protein (SARS-CoV-2, UniProt P0DTC2 319-541). The assay can be described thus: SPR. (Surface plasmon resonance follows binding to a sensor surface in real time, without labels.)

B1: 18-4A (antibody, V domains shown)
VH: QVQLQQSGPGLVKPSQTLSLTCAISGDSVSNNSAAWNWIRQSPSRGLEWLGRTYYRSKWYNDYAVSVSSRITINPDTSKNQFSLQLNSVTPEDTAVYYCAREGALLWFGEGAFDYWGQGTLVTVSS
VL: EIVLTQSPGTLSLSPGERATLSCRASHIVSSSYLAWYQQKPGQAPRFLIYGASSRATGIPDRFSGSGSGTDFTLTISRLEPEDFAVYYCQQYAGSPFTFGPGTKVDIK
Broadly, the koff is the first-order rate constant of dissociation. Read a low koff as a long-lived complex. The molecule B1 returned a koff of 0.000134 s⁻¹.

B2: 11-2G (antibody, V domains shown)
VH: QVQLQQAGPGLVKPSQTLSLTCAISGDSVSNNSAIWNWIRQSPSRGLEWLGRTYYRSKWYNDYAVSVSSRITINPDTSKNQFSLQLNSVTPEDTAVYYCARVDILTGYSFDYWGQGTLVTVSS
VL: EIVLTQSPGTLSLSPGERATLSCRASQSVSSSFLAWYQQKPGQAPRFLIYGESYRATGIPDRFSGSGSGTDFTLTISRLEPEDFAVYYCQQYGSSLTFGGGTKVEIK
In the case of B2, the koff was determined as 0.000568 s⁻¹. This koff lies about 4.2-fold higher than the previous one.
